# Data taken from US20250042970A1 (AURINIA PHARMACEUTICALS, published 2025).
# T1: FLAG-tagged cynomolgous APRIL (cynomolgus monkey, UniProt A0ACM8R0G4 110-250 (rhesus entry))
# T1 construct: FLAG-tagged, expressed with TPA signal peptide; also called cyAPRIL
# T1 sequence: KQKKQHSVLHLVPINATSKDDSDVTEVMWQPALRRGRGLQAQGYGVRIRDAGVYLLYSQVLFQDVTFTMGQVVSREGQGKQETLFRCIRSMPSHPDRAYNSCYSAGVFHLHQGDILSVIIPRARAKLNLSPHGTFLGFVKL
# Experiments:
# FLAG-tagged human BAFF [1] = target: T2, FLAG-tagged human BAFF (human, UniProt Q9Y275 134-285, limits assumed); test: BIACORE SPR
# T2 construct: used in BIACORE (Ex. 9) and KINEXA (Ex. 11); also called huBAFF
# Protocol: (§1) For human BAFF, cynomolgus monkey APRIL, and mouse APRIL measurements, mouse monoclonal antibody (IgG1) anti-FLAG M2 (Sigma Aldrich, Cat. No. F1804) was immobilized on CM3 sensor chips (GE Healthcare, Cat. No. BR-1005-41) according to the manufacturer's protocol. Antibody was diluted to 30 μg/ml in immobilization buffer (10 mM pH 5±0.20; GE Healthcare; GE Healthcare, Catalog No. BR-1003-51). […] Unreacted sites were quenched with 35 μl of 1M ethanolamine-HCl, pH 8.5 (GE Healthcare, GE Healthcare, Cat. No. BR-1000-50). This procedure typically yielded 3,000-4,000 response units (RU) of coupled antibody.
# (§2) The fusion polypeptides were diluted in HBS-EP buffer and flowed over ligand-coated sensor chips. The variant BCMA-Ig and surrogate control fusion proteins were injected at three concentrations (1.5 nM, 15 nM, and 150 nM at 30 μl/min for 2 minutes per association phase) in a single binding cycle, followed by a 20 minute incubation with HBS-EP buffer containing no protein at the same flow rate. A similar protocol was followed for Z-TACI-Ig, except that the injections were at 4.5 nM, 45 nM, and 450 nM.
# (§3) Sequence optimization involved generating revertants from the variant BCMA ECD-Ig molecules using standard site-directed mutagenesis methods such as by SOEing as described herein above. Single as well as multiple revertants from twelve different variant-BCMA-pIg18 were generated, cloned in the pcDNA3.1 vector (Life Technologies, as described in Example 6), expressed and purified as described in Examples 6-8. The resulting proteins were assayed for their binding characteristics using Surface Plasmon Resonance as described in Example 9.
# [2] = target: T1, FLAG-tagged cynomolgous APRIL; test: BIACORE SPR
# Protocol: as §1, §2, §3
# FLAG-tagged human BAFF [3] = target: T2, FLAG-tagged human BAFF; test: KinExA
# Protocol: Equilibrium measurements were performed using FLAG-tagged, recombinant huBAFF and huAPRIL ligands. Fixed ligand concentrations of human BAFF or human APRIL were incubated with serial dilutions of the variant BCMA ECD-Ig fusion polypeptides, and free ligand was detected in a KINEXA 3200 Instrument. variant BCMA ECD-Ig fusion polypeptides were first diluted in equilibration buffer (1×PBS, pH 7.4, 1 mg/ml BSA) to a range of concentrations from 10 nM to 100 fM. The linear portion of the dilution series was typically 2-fold. Ligands were diluted in equilibration buffer to fixed concentrations ranging from 5 to 20 pM and then incubated with the variant BCMA-Ig dilutions in total reaction volumes ranging from 4.5 to 15 ml. Samples were incubated at room temperature for 48-72 hours to reach equilibrium. For each data point, a fresh column of 850 μl of bead slurry coated with Variant BAv-238475-Ig was introduced into the KINEXA flow cell. Equilibrated samples ranging from 1 to 5 ml reaction volume were injected at a flow rate of 0.25 ml/min. […] The DyLight 649 fluorescent signal was detected using the red filter set (620/30 nanometer excitation filter, 670/40 nanometer emission filter, 645 nanometer dichroic filter) on the KinExA instrument and converted to a voltage signal that was directly proportional to the concentration of free ligand in the equilibrated sample.
# The various fusion proteins described above were expressed and purified as described previously (Examples 2 and 3 for the CET1019AS based plasmids and Examples 7 and 8 for the pcDNA based plasmids). […] The BAv9-1-Ig Fc proteins typically exist in solution as a dimeric fusion protein. The purified fusion proteins were assayed for binding activity using BIACORE (Example 9) and KINEXA (Example 11) assays.
fold improvement over control (FLAG-tagged human BAFF [1]) [fold],fold improvement over control [2] [fold],Kd (FLAG-tagged human BAFF [3]) [pM],Binder
5.5,0.5,–,"Variant 50237844-Ig (Fc fusion, human, domain: Fc; also called Parent 7) AGQCSQSEYYDRLIRACIPCQLRCSSNNPPVICQRYCNAGVTNSVKGTNAERKSSVECPPSPAPPVAGPSVFLFPPKPKDTLMISRTPEVTCVVVDVSHEDPEVQFNWYVDGVEVHNAKTKPREEQFNSTFRVVSVLTVVHQDWLNGKEYKCKVSNKGLPAPIEKTISKTKGQPREPQVYTLPPSREEMTKNQVSLTCLVKGFYPSDISVEWESNGQPENNYKTTPPMLDSDGSFFLYSKLTVDKSRWQQGNVFSCSVMHEALHNHYTQKSLSLSPGK"
5.5,0.9,–,"Variant 50239698-Ig (Fc fusion, human, domain: Fc; also called Parent 5) ARQCSQNEYYDRLLRSCVPCHVRCSSNNPPVTCQRYCNAGVTNSVKGTNAERKSSVECPPSPAPPVAGPSVFLFPPKPKDTLMISRTPEVTCVVVDVSHEDPEVQFNWYVDGVEVHNAKTKPREEQFNSTFRVVSVLTVVHQDWLNGKEYKCKVSNKGLPAPIEKTISKTKGQPREPQVYTLPPSREEMTKNQVSLTCLVKGFYPSDISVEWESNGQPENNYKTTPPMLDSDGSFFLYSKLTVDKSRWQQGNVFSCSVMHEALHNHYTQKSLSLSPGK"
4.5,0.2,–,"Variant 50238504R-Ig (Fc fusion, human, domain: Fc; also called Parent 8) AGQCSQNEYYDRLIRACLPCHVRCSSNTPPATCQRYCNAGVTNSVKGTNAERKSSVECPPSPAPPVAGPSVFLFPPKPKDTLMISRTPEVTCVVVDVSHEDPEVQFNWYVDGVEVHNAKTKPREEQFNSTFRVVSVLTVVHQDWLNGKEYKCKVSNKGLPAPIEKTISKTKGQPREPQVYTLPPSREEMTKNQVSLTCLVKGFYPSDISVEWESNGQPENNYKTTPPMLDSDGSFFLYSKLTVDKSRWQQGNVFSCSVMHEALHNHYTQKSLSLSPGK"
6.4,0.7,–,"Variant 50240054-Ig (Fc fusion, human, domain: Fc; also called Parent 2) AQQCSPNEYFDRLIRACIPCQLRCSSNTPPVTCQRYCNTGVTNSVKGTNAERKSSVECPPSPAPPVAGPSVFLFPPKPKDTLMISRTPEVTCVVVDVSHEDPEVQFNWYVDGVEVHNAKTKPREEQFNSTFRVVSVLTVVHQDWLNGKEYKCKVSNKGLPAPIEKTISKTKGQPREPQVYTLPPSREEMTKNQVSLTCLVKGFYPSDISVEWESNGQPENNYKTTPPMLDSDGSFFLYSKLTVDKSRWQQGNVFSCSVMHEALHNHYTQKSLSLSPGK"
5.5,0.3,–,"Variant 50237854-Ig (Fc fusion, human, domain: Fc; also called Parent 4) AGQCSQNEYFDHLIRACIPCDVRCSSNNPPVTCQRYCNAGVTNSVKGTNAERKSSVECPPSPAPPVAGPSVFLFPPKPKDTLMISRTPEVTCVVVDVSHEDPEVQFNWYVDGVEVHNAKTKPREEQFNSTFRVVSVLTVVHQDWLNGKEYKCKVSNKGLPAPIEKTISKTKGQPREPQVYTLPPSREEMTKNQVSLTCLVKGFYPSDISVEWESNGQPENNYKTTPPMLDSDGSFFLYSKLTVDKSRWQQGNVFSCSVMHEALHNHYTQKSLSLSPGK"
6.4,0.5,–,"Variant 50238779-Ig (Fc fusion, human, domain: Fc; also called Parent 1) AQQCSQNEYFDRLVNSCVPCRLRCSSNNPPLTCQHYCNAGVTNSVKGTNAERKSSVECPPSPAPPVAGPSVFLFPPKPKDTLMISRTPEVTCVVVDVSHEDPEVQFNWYVDGVEVHNAKTKPREEQFNSTFRVVSVLTVVHQDWLNGKEYKCKVSNKGLPAPIEKTISKTKGQPREPQVYTLPPSREEMTKNQVSLTCLVKGFYPSDISVEWESNGQPENNYKTTPPMLDSDGSFFLYSKLTVDKSRWQQGNVFSCSVMHEALHNHYTQKSLSLSPGK"
7.6,1.3,–,"Variant 50238494-Ig (Fc fusion, human, domain: Fc; also called Parent 11) AGQCSQSEYYDRLIHACVPCQLRCSSNNPPATCQRYCNAGVTNSVKGTNAERKSSVECPPSPAPPVAGPSVFLFPPKPKDTLMISRTPEVTCVVVDVSHEDPEVQFNWYVDGVEVHNAKTKPREEQFNSTFRVVSVLTVVHQDWLNGKEYKCKVSNKGLPAPIEKTISKTKGQPREPQVYTLPPSREEMTKNQVSLTCLVKGFYPSDISVEWESNGQPENNYKTTPPMLDSDGSFFLYSKLTVDKSRWQQGNVFSCSVMHEALHNHYTQKSLSLSPGK"
9.3,0.3,–,"Variant 50239040-Ig (Fc fusion, human, domain: Fc; also called Parent 10) ARQCSPSEYYDHLIRSCVPCQLRCSSNTPPVTCQRYCDAGVTNSVKGTNAERKSSVECPPSPAPPVAGPSVFLFPPKPKDTLMISRTPEVTCVVVDVSHEDPEVQFNWYVDGVEVHNAKTKPREEQFNSTFRVVSVLTVVHQDWLNGKEYKCKVSNKGLPAPIEKTISKTKGQPREPQVYTLPPSREEMTKNQVSLTCLVKGFYPSDISVEWESNGQPENNYKTTPPMLDSDGSFFLYSKLTVDKSRWQQGNVFSCSVMHEALHNHYTQKSLSLSPGK"
10.1,0.6,–,"Variant 50239978-Ig (Fc fusion, human, domain: Fc; also called Parent 12) ARQCSPNEYYDSLIRACVPCQLRCSSNNPPVTCQRYCNAGVTNSVKGTNAERKSSVECPPSPAPPVAGPSVFLFPPKPKDTLMISRTPEVTCVVVDVSHEDPEVQFNWYVDGVEVHNAKTKPREEQFNSTFRVVSVLTVVHQDWLNGKEYKCKVSNKGLPAPIEKTISKTKGQPREPQVYTLPPSREEMTKNQVSLTCLVKGFYPSDISVEWESNGQPENNYKTTPPMLDSDGSFFLYSKLTVDKSRWQQGNVFSCSVMHEALHNHYTQKSLSLSPGK"
7.1,0.4,–,"Variant 50237847-Ig (Fc fusion, human, domain: Fc; also called Parent 3) AGQCSQNEYYDHLLRACVSCHVRCSSNNPPAICQRYCNAGVTNSVKGTNAERKSSVECPPSPAPPVAGPSVFLFPPKPKDTLMISRTPEVTCVVVDVSHEDPEVQFNWYVDGVEVHNAKTKPREEQFNSTFRVVSVLTVVHQDWLNGKEYKCKVSNKGLPAPIEKTISKTKGQPREPQVYTLPPSREEMTKNQVSLTCLVKGFYPSDISVEWESNGQPENNYKTTPPMLDSDGSFFLYSKLTVDKSRWQQGNVFSCSVMHEALHNHYTQKSLSLSPGK"
–,–,0.291,"AGQCSQNEYFDHLIRACIPCQLRCSSNTPPLTCQRYCNAGVTNSVGGGGS (Fc fusion, human, domain: Fc; not shown: PIg23: PIg22 Fc with valine at 178 mutated to methionine) [BAv9-1-5L-pIg23]"
